Changes are numbered by the printed parent chain. Names may count otherwise.
T1: human FcγRIIb receptor protein (R&D Systems) (human, UniProt P31994 46-217)
T1 construct: Analyte injected over antibodies captured on a protein A/G chip (Biacore); also called CD32b
T1 sequence (looked up): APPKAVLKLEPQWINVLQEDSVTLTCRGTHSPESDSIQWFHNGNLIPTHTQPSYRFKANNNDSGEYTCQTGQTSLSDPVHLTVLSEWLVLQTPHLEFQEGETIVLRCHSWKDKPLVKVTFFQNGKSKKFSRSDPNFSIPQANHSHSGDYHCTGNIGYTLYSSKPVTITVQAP

B1: A327D/L328Y/I332E (antibody, human IgG1, kappa)
heavy: EVQLVESGGGLVKPGGSLKLSCAASGYTFTSYVMHWVRQAPGKGLEWIGYINPYNDGTKYNEKFQGRVTISSDKSISTAYMELSSLRSEDTAMYYCARGTYYYGTRVFDYWGQGTLVTVSSASTKGPSVFPLAPSSKSTSGGTAALGCLVKDYFPEPVTVSWNSGALTSGVHTFPAVLQSSGLYSLSSVVTVPSSSLGTQTYICNVNHKPSNTKVDKKVEPKSCDKTHTCPPCPAPELLGGPSVFLFPPKPKDTLMISRTPEVTCVVVDVSHEDPEVKFNWYVDGVEVHNAKTKPREEQYNSTYRVVSVLTVLHQDWLNGKEYKCKVSNKDYPAPEEKTISKAKGQPREPQVYTLPPSREEMTKNQVSLTCLVKGFYPSDIAVEWESNGQPENNYKTTPPVLDSDGSFFLYSKLTVDKSRWQQGNVFSCSVMHEALHNHYTQKSLSLSPGK
light: DIVMTQSPATLSLSPGERATLSCRSSKSLQNVNGNTYLYWFQQKPGQSPQLLIYRMSNLNSGVPDRFSGSGSGTEFTLTISSLEPEDFAVYYCMQHLEYPITFGAGTKLEIKRTVAAPSVFIFPPSDEQLKSGTASVVCLLNNFYPREAKVQWKVDNALQSGNSQESVTEQDSKDSTYSLSSTLTLSKADYEKHKVYACEVTHQGLSSPVTKSFNRGEC
notes: HuAM4G7 IgG1 Fc variant
B2: H268D/L328Y (antibody, human IgG1, kappa)
heavy: not shown
light: B1 light
notes: HuAM4G7 IgG1 Fc variant
B3: H268D/L328W/I332E (antibody, human IgG1, kappa)
heavy: B1 heavy with H272D, D331A, Y332W
light: B1 light
notes: HuAM4G7 IgG1 Fc variant
B4: A330H (antibody, human IgG1, kappa)
heavy: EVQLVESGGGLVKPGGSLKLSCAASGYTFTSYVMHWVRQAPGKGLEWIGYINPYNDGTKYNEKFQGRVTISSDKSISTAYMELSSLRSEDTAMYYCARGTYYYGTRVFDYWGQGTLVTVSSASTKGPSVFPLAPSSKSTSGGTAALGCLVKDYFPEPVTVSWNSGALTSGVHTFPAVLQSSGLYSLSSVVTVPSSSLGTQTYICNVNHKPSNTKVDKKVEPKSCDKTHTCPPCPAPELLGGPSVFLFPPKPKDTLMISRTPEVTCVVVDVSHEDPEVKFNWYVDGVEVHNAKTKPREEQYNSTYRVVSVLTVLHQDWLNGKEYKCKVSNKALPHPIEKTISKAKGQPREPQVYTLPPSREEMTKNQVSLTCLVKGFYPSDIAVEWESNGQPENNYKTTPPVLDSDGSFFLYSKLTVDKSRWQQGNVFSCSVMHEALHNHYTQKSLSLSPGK
light: B1 light
notes: HuAM4G7 IgG1 Fc variant
B5: G237L (antibody, human IgG1, kappa)
heavy: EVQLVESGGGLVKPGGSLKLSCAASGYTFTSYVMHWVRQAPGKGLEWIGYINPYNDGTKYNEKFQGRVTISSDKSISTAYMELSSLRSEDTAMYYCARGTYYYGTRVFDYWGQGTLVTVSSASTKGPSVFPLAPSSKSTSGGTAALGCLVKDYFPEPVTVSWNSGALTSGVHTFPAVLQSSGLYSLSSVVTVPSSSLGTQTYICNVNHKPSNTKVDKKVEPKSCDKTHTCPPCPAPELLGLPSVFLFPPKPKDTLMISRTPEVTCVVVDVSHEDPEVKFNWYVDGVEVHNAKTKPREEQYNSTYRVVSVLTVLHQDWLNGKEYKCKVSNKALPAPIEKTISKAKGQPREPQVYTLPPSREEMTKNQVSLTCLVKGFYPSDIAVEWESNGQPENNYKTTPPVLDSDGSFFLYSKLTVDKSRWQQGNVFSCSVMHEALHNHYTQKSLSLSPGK
light: B1 light
notes: HuAM4G7 IgG1 Fc variant
B6: L234W/S239D/L328Y (antibody, human IgG1, kappa)
heavy: B1 heavy with L238W, S243D, D331A, E336I
light: B1 light
notes: HuAM4G7 IgG1 Fc variant
B7: L234F/G236N (antibody, human IgG1, kappa)
heavy: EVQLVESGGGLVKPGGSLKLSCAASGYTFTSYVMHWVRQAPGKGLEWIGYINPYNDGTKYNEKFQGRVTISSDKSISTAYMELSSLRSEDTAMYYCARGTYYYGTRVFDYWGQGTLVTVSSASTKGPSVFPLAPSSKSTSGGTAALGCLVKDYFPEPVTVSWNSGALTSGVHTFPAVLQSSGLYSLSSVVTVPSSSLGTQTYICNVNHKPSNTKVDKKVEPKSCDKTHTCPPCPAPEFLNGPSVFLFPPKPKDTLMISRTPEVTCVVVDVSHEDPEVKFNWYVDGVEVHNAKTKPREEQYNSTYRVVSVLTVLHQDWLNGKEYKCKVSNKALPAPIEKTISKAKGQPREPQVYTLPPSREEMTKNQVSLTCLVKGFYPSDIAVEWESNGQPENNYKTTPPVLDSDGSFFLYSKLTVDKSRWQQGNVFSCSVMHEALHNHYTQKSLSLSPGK
light: B1 light
notes: HuAM4G7 IgG1 Fc variant
B8: G236L (antibody, human IgG1, kappa)
heavy: not shown
light: B1 light
notes: HuAM4G7 IgG1 Fc variant
B9: G236D/H268D (antibody, human IgG1, kappa)
heavy: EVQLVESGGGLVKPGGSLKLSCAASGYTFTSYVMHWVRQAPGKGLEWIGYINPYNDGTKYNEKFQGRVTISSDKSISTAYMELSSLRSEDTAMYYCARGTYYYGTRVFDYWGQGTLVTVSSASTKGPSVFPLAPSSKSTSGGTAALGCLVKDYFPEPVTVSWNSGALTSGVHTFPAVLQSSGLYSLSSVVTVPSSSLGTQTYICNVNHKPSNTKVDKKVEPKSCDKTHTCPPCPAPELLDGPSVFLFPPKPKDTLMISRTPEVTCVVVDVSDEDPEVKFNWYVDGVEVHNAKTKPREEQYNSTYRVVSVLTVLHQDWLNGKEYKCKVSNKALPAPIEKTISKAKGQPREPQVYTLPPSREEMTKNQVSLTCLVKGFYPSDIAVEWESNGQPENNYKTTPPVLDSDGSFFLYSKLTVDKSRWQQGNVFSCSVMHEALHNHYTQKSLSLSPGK
light: B1 light
notes: HuAM4G7 IgG1 Fc variant
B10: L234W/H268D/L328Y (antibody, human IgG1, kappa)
heavy: B1 heavy with L238W, H272D, D331A, E336I
light: B1 light
notes: HuAM4G7 IgG1 Fc variant
B11: H268D/A327D (antibody, human IgG1, kappa)
heavy: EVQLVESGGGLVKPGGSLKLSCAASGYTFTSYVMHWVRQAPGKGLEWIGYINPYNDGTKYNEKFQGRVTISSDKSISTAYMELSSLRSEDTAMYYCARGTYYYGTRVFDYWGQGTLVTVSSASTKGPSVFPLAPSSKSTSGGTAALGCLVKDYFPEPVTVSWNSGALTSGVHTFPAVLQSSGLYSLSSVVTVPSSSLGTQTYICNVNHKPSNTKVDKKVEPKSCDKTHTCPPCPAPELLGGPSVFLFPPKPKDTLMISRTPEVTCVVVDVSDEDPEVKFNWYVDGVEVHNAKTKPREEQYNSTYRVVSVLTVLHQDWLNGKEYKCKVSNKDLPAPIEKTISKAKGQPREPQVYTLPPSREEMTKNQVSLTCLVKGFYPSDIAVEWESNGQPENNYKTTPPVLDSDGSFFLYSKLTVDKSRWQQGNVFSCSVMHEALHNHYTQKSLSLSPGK
light: B1 light
notes: HuAM4G7 IgG1 Fc variant
B12: K326D/L328Y/I332E (antibody, human IgG1, kappa)
heavy: B1 heavy with K330D, D331A
light: B1 light
notes: HuAM4G7 IgG1 Fc variant
B13: G236I (antibody, human IgG1, kappa)
heavy: not shown
light: B1 light
notes: HuAM4G7 IgG1 Fc variant
B14: G236S/G237A (antibody, human IgG1, kappa)
heavy: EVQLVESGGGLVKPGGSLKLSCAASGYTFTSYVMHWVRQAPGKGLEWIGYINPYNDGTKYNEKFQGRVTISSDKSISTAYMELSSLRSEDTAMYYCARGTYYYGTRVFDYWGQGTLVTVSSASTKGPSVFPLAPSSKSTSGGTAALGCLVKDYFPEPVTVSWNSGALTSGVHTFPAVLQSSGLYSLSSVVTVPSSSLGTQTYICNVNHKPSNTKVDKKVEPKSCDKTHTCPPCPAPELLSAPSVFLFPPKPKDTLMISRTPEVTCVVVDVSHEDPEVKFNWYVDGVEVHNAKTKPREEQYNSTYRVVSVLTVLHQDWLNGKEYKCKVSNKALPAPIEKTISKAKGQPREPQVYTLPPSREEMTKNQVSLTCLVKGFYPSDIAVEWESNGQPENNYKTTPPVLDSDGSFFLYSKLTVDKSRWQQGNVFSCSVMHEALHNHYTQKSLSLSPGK
light: B1 light
notes: HuAM4G7 IgG1 Fc variant
B15: L234W/L328Y/I332E (antibody, human IgG1, kappa)
heavy: B1 heavy with L238W, D331A
light: B1 light
notes: HuAM4G7 IgG1 Fc variant
B16: K326A (antibody, human IgG1, kappa)
heavy: not shown
light: B1 light
notes: HuAM4G7 IgG1 Fc variant
B17: K326W (antibody, human IgG1, kappa)
heavy: not shown
light: B1 light
notes: HuAM4G7 IgG1 Fc variant
B18: A330D (antibody, human IgG1, kappa)
heavy: not shown
light: B1 light
notes: HuAM4G7 IgG1 Fc variant
B19: A330S (antibody, human IgG1, kappa)
heavy: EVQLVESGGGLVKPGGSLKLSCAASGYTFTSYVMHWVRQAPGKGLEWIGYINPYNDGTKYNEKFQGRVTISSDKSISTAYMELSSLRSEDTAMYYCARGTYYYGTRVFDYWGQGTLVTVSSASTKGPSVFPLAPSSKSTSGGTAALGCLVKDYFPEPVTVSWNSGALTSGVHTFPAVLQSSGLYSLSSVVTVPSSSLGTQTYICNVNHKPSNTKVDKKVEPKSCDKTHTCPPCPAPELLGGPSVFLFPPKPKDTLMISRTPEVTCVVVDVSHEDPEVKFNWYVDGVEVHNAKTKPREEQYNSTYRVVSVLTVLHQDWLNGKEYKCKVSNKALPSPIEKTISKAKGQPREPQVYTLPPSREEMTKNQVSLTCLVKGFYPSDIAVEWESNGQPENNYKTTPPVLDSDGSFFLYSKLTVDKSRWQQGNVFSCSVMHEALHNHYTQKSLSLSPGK
light: B1 light
notes: HuAM4G7 IgG1 Fc variant
B20: K326E (antibody, human IgG1, kappa)
heavy: not shown
light: B1 light
notes: HuAM4G7 IgG1 Fc variant
B21: G236A/G237A (antibody, human IgG1, kappa)
heavy: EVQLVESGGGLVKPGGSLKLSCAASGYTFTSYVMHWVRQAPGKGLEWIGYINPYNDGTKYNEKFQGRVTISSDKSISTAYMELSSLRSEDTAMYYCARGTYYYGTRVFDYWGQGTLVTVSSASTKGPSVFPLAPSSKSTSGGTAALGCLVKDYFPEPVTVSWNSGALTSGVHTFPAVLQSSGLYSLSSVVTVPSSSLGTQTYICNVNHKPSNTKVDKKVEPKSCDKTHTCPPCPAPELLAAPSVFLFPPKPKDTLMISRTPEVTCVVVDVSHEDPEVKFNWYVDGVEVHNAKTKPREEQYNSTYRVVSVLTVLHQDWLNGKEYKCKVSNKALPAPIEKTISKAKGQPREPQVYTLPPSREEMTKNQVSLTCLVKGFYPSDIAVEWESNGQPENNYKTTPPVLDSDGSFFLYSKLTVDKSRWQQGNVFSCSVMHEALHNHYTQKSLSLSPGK
light: B1 light
notes: HuAM4G7 IgG1 Fc variant
B22: A327L (antibody, human IgG1, kappa)
heavy: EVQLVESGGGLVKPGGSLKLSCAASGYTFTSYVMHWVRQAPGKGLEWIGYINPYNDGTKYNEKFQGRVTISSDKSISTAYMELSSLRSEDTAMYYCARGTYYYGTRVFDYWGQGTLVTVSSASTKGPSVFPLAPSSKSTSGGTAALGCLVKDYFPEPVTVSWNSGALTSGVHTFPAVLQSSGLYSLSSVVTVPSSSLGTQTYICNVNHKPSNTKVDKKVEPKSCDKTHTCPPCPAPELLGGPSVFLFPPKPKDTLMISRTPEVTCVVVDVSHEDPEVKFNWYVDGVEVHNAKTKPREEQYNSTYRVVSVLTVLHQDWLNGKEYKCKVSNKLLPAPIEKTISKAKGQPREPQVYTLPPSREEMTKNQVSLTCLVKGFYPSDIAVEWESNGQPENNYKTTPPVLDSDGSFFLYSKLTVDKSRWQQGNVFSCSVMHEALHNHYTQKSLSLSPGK
light: B1 light
notes: HuAM4G7 IgG1 Fc variant
B23: H268D/L328F/I332E (antibody, human IgG1, kappa)
heavy: B1 heavy with H272D, D331A, Y332F
light: B1 light
notes: HuAM4G7 IgG1 Fc variant
B24: H268E/L328Y/I332E (antibody, human IgG1, kappa)
heavy: B1 heavy with H272E, D331A
light: B1 light
notes: HuAM4G7 IgG1 Fc variant
B25: H268D/A327D/L328Y (antibody, human IgG1, kappa)
heavy: B1 heavy with H272D, E336I
light: B1 light
notes: HuAM4G7 IgG1 Fc variant
B26: L234E/H268D (antibody, human IgG1, kappa)
heavy: not shown
light: B1 light
notes: HuAM4G7 IgG1 Fc variant
B27: H268D/L328Y/I332E (antibody, human IgG1, kappa)
heavy: B1 heavy with H272D, D331A
light: B1 light
notes: HuAM4G7 IgG1 Fc variant
B28: G237H (antibody, human IgG1, kappa)
heavy: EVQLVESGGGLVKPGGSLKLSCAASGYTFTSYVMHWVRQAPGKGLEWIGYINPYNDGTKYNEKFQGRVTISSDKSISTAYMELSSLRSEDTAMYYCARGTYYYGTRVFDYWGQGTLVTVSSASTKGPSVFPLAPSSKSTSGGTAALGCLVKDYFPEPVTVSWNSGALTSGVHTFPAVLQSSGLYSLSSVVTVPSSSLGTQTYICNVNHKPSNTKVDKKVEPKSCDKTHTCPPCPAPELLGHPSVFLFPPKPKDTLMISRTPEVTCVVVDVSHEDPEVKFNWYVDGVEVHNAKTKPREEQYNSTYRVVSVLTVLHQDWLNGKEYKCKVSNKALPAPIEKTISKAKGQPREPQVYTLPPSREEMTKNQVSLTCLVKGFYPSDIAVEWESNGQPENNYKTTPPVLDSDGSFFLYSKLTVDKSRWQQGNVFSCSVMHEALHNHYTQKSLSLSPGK
light: B1 light
notes: HuAM4G7 IgG1 Fc variant
B29: A330K (antibody, human IgG1, kappa)
heavy: not shown
light: B1 light
notes: HuAM4G7 IgG1 Fc variant
B30: L235D/S239D (antibody, human IgG1, kappa)
heavy: not shown
light: B1 light
notes: HuAM4G7 IgG1 Fc variant
B31: H268D/K326D/L328Y (antibody, human IgG1, kappa)
heavy: B1 heavy with H272D, K330D, D331A, E336I
light: B1 light
notes: HuAM4G7 IgG1 Fc variant
B32: G236Y (antibody, human IgG1, kappa)
heavy: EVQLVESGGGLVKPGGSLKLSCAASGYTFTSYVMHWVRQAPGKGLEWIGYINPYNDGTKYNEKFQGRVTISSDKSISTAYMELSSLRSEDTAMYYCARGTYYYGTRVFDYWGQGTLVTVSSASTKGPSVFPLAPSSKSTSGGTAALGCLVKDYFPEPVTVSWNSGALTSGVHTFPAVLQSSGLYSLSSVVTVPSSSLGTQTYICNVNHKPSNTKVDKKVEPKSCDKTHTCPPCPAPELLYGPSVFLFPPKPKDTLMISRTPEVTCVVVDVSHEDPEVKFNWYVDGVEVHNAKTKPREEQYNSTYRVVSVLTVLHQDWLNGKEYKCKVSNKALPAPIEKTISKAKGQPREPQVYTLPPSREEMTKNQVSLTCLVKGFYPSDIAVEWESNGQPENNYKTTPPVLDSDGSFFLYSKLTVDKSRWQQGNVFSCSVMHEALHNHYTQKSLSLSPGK
light: B1 light
notes: HuAM4G7 IgG1 Fc variant

biological target: T1, human FcγRIIb receptor protein (R&D …); assay: SPR (Biacore)
Experimental: Variants were screened for receptor affinity using Biacore™ technology, also referred to as Biacore herein, a surface plasmon resonance (SPR) based technology for studying biomolecular interactions in real time. SPR measurements were performed using a Biacore 3000 instrument (Biacore, Piscataway, N.J.). A protein A/G (Pierce Biotechnology) CM5 biosensor chip (Biacore) was generated using a standard primary amine coupling protocol. All measurements were performed using HBS-EP buffer (10 mM HEPES pH 7.4, 0.15 M NaCl, 3 mM EDTA, 0.005% vol/vol surfactant P20, Biacore). Antibodies at 20 nM or 50 nM in HBS-EP buffer were immobilized on the protein A/G surface and FcγRs were injected. After each cycle, the surface was regenerated by injecting glycine buffer (10 mM, pH 1.5). Data were processed by zeroing time and response before the injection of FcγR and by subtracting appropriate nonspecific signals (response of reference channel and injection of running buffer). Kinetic analyses were performed by global fitting of binding data with a 1:1 Langmuir binding model using BIAevaluation software (Biacore).

Row | Fold FcγRIIb [fold] | binding result | Binder
1 | 2.31 |  | B1
2 | 1.91 |  | B2
3 | 39.8 |  | B3
4 |  | no binding | B4
5 |  | no binding | B5
6 | 32.8 |  | B6
7 |  | no binding | B7
8 |  | no binding | B8
9 | 11.6 |  | B9
10 | 5.92 |  | B10
11 | 7.68 |  | B11
12 | 2.65 |  | B12
13 |  | no binding | B13
14 | 0.0797 |  | B14
15 | 6.32 |  | B15
16 |  | no binding | B16

Row | Fold FcγRIIb [fold] | binding result | Binder
17 | 3.04 |  | B17
18 |  | no binding | B18
19 | 0.0635 |  | B19
20 | 6.09 |  | B20
21 | 0.0578 |  | B21
22 |  | no binding | B22
23 | 12.3 |  | B23
24 | 8.53 |  | B24
25 | 3.49 |  | B25
26 | 5.89 |  | B26
27 | 4.89 |  | B27
28 |  | no binding | B28
29 | 1.55 |  | B29
30 | 4.11 |  | B30
31 | 18.6 |  | B31
32 |  | no binding | B32

— patent US20170355766A1 (Xencor, published 2017)
